Experimental data from patent US20210221878A1 (Bristol-Myers Squibb, published 2021).
Like-named read-outs stand apart in the source and are kept apart here. Primed or numbered codes have the meaning given here. * marks the point of attachment. Biotin = O=C1N[C@H]2[C@H](CS[C@H]2CCCCC(=O)*)N1; PEG4′ = not defined here

Tests used:
[1] = molecular target: T1, α-synuclein inducing species in brain lysates of MSA patients (12-18, 01-03, 04-51) (human, UniProt P37840 1-140); assay: cell-based or functional assay
[2] = molecular target: T1, α-synuclein inducing species in brain …; assay: cell-based or functional assay; remark: listed apart in the source
[3] = molecular target: T2, full-length human recombinant wild-type β-synuclein monomer (human, UniProt Q16143 1-134); assay: competition ELISA: antibody pre-incubated with titrated synuclein species in solution; unbound antibody captured on WT PFF-coated plate (CPS)
T2 construct: mature; also called human βSyn monomer

[4] = molecular target: T3, full-length human recombinant wild-type γ-synuclein monomer (human, UniProt O76070 1-127); assay: as above
T3 construct: mature; also called human γSyn monomer

[5] = molecular target: mouse αSyn 111-140 peptide (mouse, C-terminal amide (NH2)); assay: solution competition ELISA, free antibody captured on PFF plate; column Mouse 111-140 (nM)
[6] = molecular target: rat αSyn 111-140 peptide (rat, C-terminal amide (NH2)); assay: solution competition ELISA, free antibody captured on PFF plate; column Rat 111-140 (nM)
[7] = molecular target: T1, α-synuclein inducing species in brain …; assay: cell-based or functional assay; remark: listed apart in the source
[8] = molecular target: PFF used as inducer in the immunodepletion assay of Example 10 (human, UniProt P37840 1-140); assay: cell-based or functional assay
[9] = molecular target: T4, 120-130; assay: 1-sided ELISA on plate-bound biotinylated peptide, luminescence (CPS)
T4 construct: also called alphaSyn 120-130
T4 peptide: {Biotin-PEG4′}-PDNEAYEMPSE-NH2

[10] = molecular target: T5, 125-135; assay: as above
T5 peptide: {Biotin-PEG4′}-YEMPSEEGYQD-NH2

[11] = molecular target: T6, 130-140; assay: as above
T6 construct: also called alphaSyn 130-140
T6 peptide: {Biotin-PEG4′}-EEGYQDYEPEA-NH2

[12] = molecular target: T7, 128-138; assay: as above
T7 peptide: {Biotin-PEG4′}-PSEEGYQDYEP-NH2

[13] = molecular target: T8, 117-127; assay: as above
T8 construct: also called alphaSyn 117-127
T8 peptide: {Biotin-PEG4′}-PVDPDNEAYEM-NH2

[14] = molecular target: T9, 124-134; assay: as above
T9 construct: also called alphaSyn 124-134
T9 peptide: {Biotin-PEG4′}-AYEMPSEEGYQ-NH2

[15] = molecular target: T10, 129-139; assay: as above
T10 peptide: {Biotin-PEG4′}-SEEGYQDYEPE-NH2

[16] = molecular target: T11, 122-132; assay: as above
T11 construct: also called alphaSyn 122-132
T11 peptide: {Biotin-PEG4′}-NEAYEMPSEEG-NH2

[17] = molecular target: T12, 119-129; assay: as above
T12 peptide: {Biotin-PEG4′}-DPDNEAYEMPS-NH2

[18] = molecular target: T13, 116-126; assay: as above
T13 construct: also called alphaSyn 116-126
T13 peptide: {Biotin-PEG4′}-MPVDPDNEAYE-NH2

[19] = molecular target: T14, 118-128; assay: as above
T14 construct: also called alphaSyn 118-128
T14 peptide: {Biotin-PEG4′}-VDPDNEAYEMP-NH2

[20] = molecular target: T15, 123-133; assay: as above
T15 peptide: {Biotin-PEG4′}-EAYEMPSEEGY-NH2

[21] = molecular target: T16, 121-131; assay: as above
T16 construct: also called alphaSyn 121-131
T16 peptide: {Biotin-PEG4′}-DNEAYEMPSEE-NH2

[22] = molecular target: T2, full-length human recombinant wild-type …; assay: competition ELISA: antibody pre-incubated with titrated synuclein species in solution; unbound antibody captured on WT PFF-coated plate (CPS); remark: listed apart in the source
[23] = molecular target: T3, full-length human recombinant wild-type …; assay: as above; remark: listed apart in the source
[24] = molecular target: T1, α-synuclein inducing species in brain …; assay: cell-based or functional assay; remark: listed apart in the source
[25] = molecular target: T3, full-length human recombinant wild-type …; assay: competition ELISA: antibody pre-incubated with titrated synuclein species in solution; unbound antibody captured on WT PFF-coated plate (CPS); remark: listed apart in the source
[26] = molecular target: T2, full-length human recombinant wild-type …; assay: as above; remark: listed apart in the source
[27] = molecular target: T3, full-length human recombinant wild-type …; assay: as above; remark: listed apart in the source

T2 sequence (Q16143 whole entry): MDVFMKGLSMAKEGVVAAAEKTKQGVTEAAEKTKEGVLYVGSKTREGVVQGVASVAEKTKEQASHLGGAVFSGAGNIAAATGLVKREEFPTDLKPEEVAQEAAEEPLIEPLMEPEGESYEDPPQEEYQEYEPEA

Binder	IC50 (nM), immunodepletion of pS129-inducing activity from MSA 04-51 lysate [1]	IC50 (nM), immunodepletion of pS129-inducing activity from MSA 12-18 lysate [2]	IC50 (nM), immunodepletion of pS129-inducing activity from MSA 01-03 lysate [7]	IC50 (nM), immunodepletion of pS129-inducing activity from PFF [8]	IC50 (nM), immunodepletion of pS129-inducing activity from MSA 12-18 lysate [24]	also measured
11H11-1 (antibody, V domains shown, shares its VH with 11H11-2) VH: EVQLVQSGGGLVHPGGSLRLSCAGSGFTFSSYAMHWVRQAPGKGLEWVSAIGTGGGTYYADSVKGRFTISRDNAKNSLYLQMNSLRAEDMAVYYCARGNWEFDYWGQGTLVTVSS VL: not shown	0.15 nM	0.76 nM	2.6 nM	0.066 nM		binding result [3]: binds; binding result [4]: binds; EC50 [5]: 5.75 µM; EC50 [6]: 5.71 µM
44B11 (antibody, V domains shown) VH: EVQLVESGGGLIQPGGSLRLSCAASGFTVSSKYMSWVRQAPGKGLEWVSVMYSGGRRYYADSVKGRFTISRDNSKNTLYLQMNSLRAEDTAVYYCARGDRGDYWGQGTLVTVSS VL: EIVLTQSPATLSLSPGERATLSCRASQSVSSYLAWYQQKPGQAPRLLIYDASNRATGIPARFSGSGSGTDFTLTISSLEPEDFAVYYCQQRSNWPITFGQGTRLEIK	0.41 nM	2.21 nM	2.7 nM	0.028 nM		binding result [9]: no binding; binding result [10]: no binding; binding result [11]: binds; binding result [12]: no binding; binding result [13]: no binding; binding result [14]: no binding; binding result [15]: binds; binding result [16]: no binding; binding result [17]: no binding; binding result [18]: no binding; binding result [19]: no binding; binding result [20]: no binding; binding result [21]: no binding; Fold Antibody 1, immunodepletion of MSA 04-51 lysate [1]: 1.1 fold; Fold Antibody 1, immunodepletion of MSA 12-18 lysate [2]: 2.5 fold; Fold Antibody 1, immunodepletion of MSA 01-03 lysate [7]: 0.9 fold; Fold Antibody 1, immunodepletion of PFF [8]: 1.1 fold
15A5 (antibody, V domains shown) VH: QVQLQESGPGLVKPSETLSLTCTVSGGSVSSGSYYWCWIRQPPGKGLEWIGYIYYSGRTKYNPSLKSRVTISVDTSKNQFSLKLSSVTAADTAVYYCARERGRFDYWGQGTLVTVSS VL: not shown	0.12 nM	0.61 nM	0.59 nM	0.042 nM		binding result [22]: binds; binding result [23]: binds
7A10-hIgG1.3f (antibody, V domains shown) VH: QVQLQESGPGLVKPSETLSLTCTVSGGSVSSGRYYWSWIRQPPGKGLEWIGYIYYSGRTKYNPSLKSRVTISVDTSKNQFSLKLSSVTAADTAVYYCTRERGYLDYWGQGTLVTVSS VL: not shown					0.52 nM	
7A10 (antibody, V domains shown) VH: QVQLQESGPGLVKPSETLSLTCTVSGGSVSSGRYYWSWIRQPPGKGLEWIGYIYYSGRTKYNPSLKSRVTISVDTSKNQFSLKLSSVTAADTAVYYCTRERGYLDYWGQGTLVTVSS VL: not shown	0.04 nM	0.39 nM	0.28 nM	0.018 nM		binding result [25]: binds
21A3 (antibody, V domains shown, also called 21A03) VH: QVQLQESGPGLVKPSETLSLTCTVSGGSVSNRNYYWSWIRQPPGKGLEWIGYIYYSGRTKYNPSLKSRVTISVDTSKNQFSLKVSSVTAADTAVYYCARERGRFDYWGQGTLVTVSS VL: not shown	0.05 nM	0.16 nM	0.37 nM	0.061 nM		binding result [26]: binds; binding result [27]: binds
7A10-Vh-R56S-K58N-T93A-IgG1.3f (antibody, name in Kabat numbering, V domains shown) VH: QVQLQESGPGLVKPSETLSLTCTVSGGSVSSGRYYWSWIRQPPGKGLEWIGYIYYSGSTNYNPSLKSRVTISVDTSKNQFSLKLSSVTAADTAVYYCARERGYLDYWGQGTLVTVSS VL: not shown					51 nM	
7A10-Vh-T93A-hHC-IgG1.3f (antibody, V domains shown) VH: QVQLQESGPGLVKPSETLSLTCTVSGGSVSSGRYYWSWIRQPPGKGLEWIGYIYYSGRTKYNPSLKSRVTISVDTSKNQFSLKLSSVTAADTAVYYCARERGYLDYWGQGTLVTVSS VL: not shown					0.66 nM	
7A10-Vh-R56S-T93A-hHC-IgG1.3f (antibody, name in Kabat numbering, V domains shown) VH: QVQLQESGPGLVKPSETLSLTCTVSGGSVSSGRYYWSWIRQPPGKGLEWIGYIYYSGSTKYNPSLKSRVTISVDTSKNQFSLKLSSVTAADTAVYYCARERGYLDYWGQGTLVTVSS VL: not shown					9 nM	
21A3-hIgG1.3f (antibody, V domains shown) VH: QVQLQESGPGLVKPSETLSLTCTVSGGSVSNRNYYWSWIRQPPGKGLEWIGYIYYSGRTKYNPSLKSRVTISVDTSKNQFSLKVSSVTAADTAVYYCARERGRFDYWGQGTLVTVSS VL: not shown					0.19 nM	
36A3 (antibody, V domains shown) VH: QVQLQESGPGLVKPSETLSLTCTVSGGSVSSGSYYWSWIRQPPGKGLEWIGYIYYSGRTKYNPSLKSRVTISVDTSRNQFSLKLSSVTAADTAVYYCARERGWLDPWGQGTLVTVSS VL: not shown	0.17 nM	0.63 nM	0.55 nM	0.057 nM		
21A3-Vh-V82L-hHC-IgG1.3f (antibody, V domains shown) VH: QVQLQESGPGLVKPSETLSLTCTVSGGSVSNRNYYWSWIRQPPGKGLEWIGYIYYSGRTKYNPSLKSRVTISVDTSKNQFSLKLSSVTAADTAVYYCARERGRFDYWGQGTLVTVSS VL: not shown					0.11 nM	
7A10-Vh-K58Y-T93A-hHC-IgG1.3f (antibody, name in Kabat numbering, V domains shown) VH: QVQLQESGPGLVKPSETLSLTCTVSGGSVSSGRYYWSWIRQPPGKGLEWIGYIYYSGRTYYNPSLKSRVTISVDTSKNQFSLKLSSVTAADTAVYYCARERGYLDYWGQGTLVTVSS VL: not shown					4.65 nM	
